From PMC8307404, “Crystal Structure-Guided Design of Bisubstrate Inhibitors and Photoluminescent Probes for Protein Kinases of the PIM Family” (Molecules, 2021)
Square brackets hold non-standard residues; d marks the D form. Peptide text beside a SMILES is read from it. * marks the point of attachment. X3 = O=C(CCCCCNCc1nc2c(sc3cc(Br)cnc32)c(=O)[nH]1)*

Legend:
Test in all cases: Kinase profiling (radiometric filter-binding)
Type in all cases: biochemical
DAPK1 = DAPK1 (Homo sapiens, UniProt P53355); details: DAPK1, 1 µM inhibitor; read-out: Residual activity, %
Summary of the method: (§1)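 Human kinases were tested in a radiometric filter-binding panel with ATP at or below each enzyme's KM. Inhibitors were present at a final concentration of 1 µM, and residual activity was reported as a percentage of the uninhibited control.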

EF2K = EF2K (Homo sapiens, UniProt O00418); details: 1 µM inhibitor, read-out: Residual activity, %
Summary of the method: as §1

MST2 = biological target: T1, MST2 (Homo sapiens, UniProt Q13188); details: MST2, 1 µM inhibitor; read-out: Residual activity, %
T1 sequence (Q13188 1-491): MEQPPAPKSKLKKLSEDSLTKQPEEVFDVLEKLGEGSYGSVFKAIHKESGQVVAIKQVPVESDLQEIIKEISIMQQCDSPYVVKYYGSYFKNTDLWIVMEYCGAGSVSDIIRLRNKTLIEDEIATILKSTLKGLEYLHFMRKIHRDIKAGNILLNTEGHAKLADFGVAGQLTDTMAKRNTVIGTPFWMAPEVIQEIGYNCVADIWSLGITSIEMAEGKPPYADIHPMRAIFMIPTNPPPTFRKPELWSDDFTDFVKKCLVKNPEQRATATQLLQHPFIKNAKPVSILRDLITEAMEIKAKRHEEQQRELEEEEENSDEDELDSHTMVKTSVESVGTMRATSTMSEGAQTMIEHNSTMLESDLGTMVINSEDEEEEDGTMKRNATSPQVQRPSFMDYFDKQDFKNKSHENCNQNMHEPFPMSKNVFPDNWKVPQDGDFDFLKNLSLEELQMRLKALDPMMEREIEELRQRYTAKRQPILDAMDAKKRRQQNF
Summary of the method: as §1

NUAK1 = biological target: T2, NUAK1 (Homo sapiens, UniProt O60285); details: NUAK1, 1 µM inhibitor; read-out: Residual activity, %
T2 sequence (O60285 1-661): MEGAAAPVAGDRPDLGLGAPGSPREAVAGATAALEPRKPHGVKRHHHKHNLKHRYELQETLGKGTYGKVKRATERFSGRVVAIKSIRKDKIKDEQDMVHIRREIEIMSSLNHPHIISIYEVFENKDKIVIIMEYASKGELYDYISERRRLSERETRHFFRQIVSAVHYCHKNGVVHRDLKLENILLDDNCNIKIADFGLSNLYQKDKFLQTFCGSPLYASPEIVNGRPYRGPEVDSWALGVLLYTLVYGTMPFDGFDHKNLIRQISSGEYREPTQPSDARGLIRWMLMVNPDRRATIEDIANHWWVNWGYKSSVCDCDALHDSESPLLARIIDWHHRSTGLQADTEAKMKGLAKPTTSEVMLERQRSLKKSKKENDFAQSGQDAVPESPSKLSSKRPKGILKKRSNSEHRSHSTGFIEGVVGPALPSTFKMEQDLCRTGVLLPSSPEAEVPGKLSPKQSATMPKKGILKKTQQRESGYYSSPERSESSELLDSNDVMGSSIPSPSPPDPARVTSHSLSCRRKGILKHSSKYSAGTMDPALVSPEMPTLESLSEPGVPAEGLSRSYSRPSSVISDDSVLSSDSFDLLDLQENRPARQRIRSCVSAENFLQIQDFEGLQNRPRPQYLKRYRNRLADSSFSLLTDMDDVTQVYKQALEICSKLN
Summary of the method: as §1

PKB = PKB (Homo sapiens, UniProt P31749); details: first of two PKB lines (Greek letter lost), 1 µM inhibitor, read-out: Residual activity, %
Summary of the method: as §1

ROCK 2 = ROCK 2 (Homo sapiens, UniProt O75116); details: ROCK 2, 1 µM inhibitor; read-out: Residual activity, %
Summary of the method: as §1

VEG-FR = biological target: T3, VEG-FR (Homo sapiens, UniProt P17948); details: 1 µM inhibitor, read-out: Residual activity, %
T3 sequence (P17948 784-1338 limits assumed): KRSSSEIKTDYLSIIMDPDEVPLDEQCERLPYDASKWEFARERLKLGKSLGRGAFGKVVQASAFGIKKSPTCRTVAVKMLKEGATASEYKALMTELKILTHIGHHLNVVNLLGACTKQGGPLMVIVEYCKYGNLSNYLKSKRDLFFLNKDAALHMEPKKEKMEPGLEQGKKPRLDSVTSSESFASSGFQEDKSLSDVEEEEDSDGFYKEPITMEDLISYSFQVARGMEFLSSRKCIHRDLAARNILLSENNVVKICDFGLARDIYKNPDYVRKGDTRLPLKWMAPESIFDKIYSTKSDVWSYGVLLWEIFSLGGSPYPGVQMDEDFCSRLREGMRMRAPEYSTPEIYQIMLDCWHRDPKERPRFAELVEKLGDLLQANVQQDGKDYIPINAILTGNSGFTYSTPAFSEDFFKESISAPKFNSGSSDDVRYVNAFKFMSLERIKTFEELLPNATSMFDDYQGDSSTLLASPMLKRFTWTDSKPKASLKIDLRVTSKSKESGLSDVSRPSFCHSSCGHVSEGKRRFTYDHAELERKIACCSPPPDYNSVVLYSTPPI
Summary of the method: as §1

Chain of PKB (P31749 whole entry): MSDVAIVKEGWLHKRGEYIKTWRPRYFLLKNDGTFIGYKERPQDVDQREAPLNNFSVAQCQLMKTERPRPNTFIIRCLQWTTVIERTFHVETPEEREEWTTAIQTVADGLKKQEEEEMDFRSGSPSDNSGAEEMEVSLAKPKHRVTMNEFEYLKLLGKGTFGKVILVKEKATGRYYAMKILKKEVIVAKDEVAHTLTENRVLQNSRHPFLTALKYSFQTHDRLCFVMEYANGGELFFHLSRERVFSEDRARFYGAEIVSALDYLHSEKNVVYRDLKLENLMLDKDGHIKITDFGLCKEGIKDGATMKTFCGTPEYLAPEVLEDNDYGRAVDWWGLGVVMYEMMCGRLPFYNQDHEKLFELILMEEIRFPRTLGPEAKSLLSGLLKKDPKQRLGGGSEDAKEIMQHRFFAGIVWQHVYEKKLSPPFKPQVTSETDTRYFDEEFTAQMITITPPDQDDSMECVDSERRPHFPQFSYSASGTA
Chain of DAPK1 (P53355 whole entry): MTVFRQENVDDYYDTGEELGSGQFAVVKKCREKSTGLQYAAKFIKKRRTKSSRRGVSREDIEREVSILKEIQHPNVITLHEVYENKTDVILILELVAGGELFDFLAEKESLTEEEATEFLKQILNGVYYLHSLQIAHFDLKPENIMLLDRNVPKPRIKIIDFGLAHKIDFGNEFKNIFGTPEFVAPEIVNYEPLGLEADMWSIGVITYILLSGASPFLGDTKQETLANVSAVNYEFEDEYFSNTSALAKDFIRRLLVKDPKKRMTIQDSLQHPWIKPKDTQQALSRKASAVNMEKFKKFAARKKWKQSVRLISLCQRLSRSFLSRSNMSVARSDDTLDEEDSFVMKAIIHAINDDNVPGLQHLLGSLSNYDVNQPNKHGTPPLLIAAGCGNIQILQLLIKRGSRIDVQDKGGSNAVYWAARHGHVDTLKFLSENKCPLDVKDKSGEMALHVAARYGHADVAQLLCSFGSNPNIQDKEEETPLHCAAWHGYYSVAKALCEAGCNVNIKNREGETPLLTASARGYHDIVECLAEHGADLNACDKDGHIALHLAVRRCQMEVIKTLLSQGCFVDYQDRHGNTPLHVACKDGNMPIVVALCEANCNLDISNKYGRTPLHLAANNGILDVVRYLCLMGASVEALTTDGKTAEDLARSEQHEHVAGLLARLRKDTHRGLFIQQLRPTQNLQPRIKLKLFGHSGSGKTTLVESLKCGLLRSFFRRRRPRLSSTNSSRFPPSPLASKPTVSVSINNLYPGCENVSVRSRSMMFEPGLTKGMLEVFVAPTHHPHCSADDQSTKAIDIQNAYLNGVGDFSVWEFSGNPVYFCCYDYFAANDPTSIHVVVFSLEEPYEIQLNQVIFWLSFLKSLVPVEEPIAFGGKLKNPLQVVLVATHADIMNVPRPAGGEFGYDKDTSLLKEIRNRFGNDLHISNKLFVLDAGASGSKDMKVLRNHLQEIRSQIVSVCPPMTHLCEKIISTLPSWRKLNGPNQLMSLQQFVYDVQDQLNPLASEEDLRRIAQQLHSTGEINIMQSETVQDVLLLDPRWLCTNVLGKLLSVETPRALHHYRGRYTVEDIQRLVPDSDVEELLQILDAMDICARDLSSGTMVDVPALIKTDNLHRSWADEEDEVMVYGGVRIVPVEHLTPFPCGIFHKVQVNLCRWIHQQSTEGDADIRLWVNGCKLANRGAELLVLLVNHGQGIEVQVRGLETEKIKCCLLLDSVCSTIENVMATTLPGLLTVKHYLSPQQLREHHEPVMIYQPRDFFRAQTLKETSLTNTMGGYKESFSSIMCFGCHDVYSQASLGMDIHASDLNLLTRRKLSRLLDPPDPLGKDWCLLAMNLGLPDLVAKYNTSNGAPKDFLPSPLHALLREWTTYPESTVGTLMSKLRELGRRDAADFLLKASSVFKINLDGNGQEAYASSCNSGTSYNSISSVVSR
Chain of ROCK 2 (O75116 whole entry): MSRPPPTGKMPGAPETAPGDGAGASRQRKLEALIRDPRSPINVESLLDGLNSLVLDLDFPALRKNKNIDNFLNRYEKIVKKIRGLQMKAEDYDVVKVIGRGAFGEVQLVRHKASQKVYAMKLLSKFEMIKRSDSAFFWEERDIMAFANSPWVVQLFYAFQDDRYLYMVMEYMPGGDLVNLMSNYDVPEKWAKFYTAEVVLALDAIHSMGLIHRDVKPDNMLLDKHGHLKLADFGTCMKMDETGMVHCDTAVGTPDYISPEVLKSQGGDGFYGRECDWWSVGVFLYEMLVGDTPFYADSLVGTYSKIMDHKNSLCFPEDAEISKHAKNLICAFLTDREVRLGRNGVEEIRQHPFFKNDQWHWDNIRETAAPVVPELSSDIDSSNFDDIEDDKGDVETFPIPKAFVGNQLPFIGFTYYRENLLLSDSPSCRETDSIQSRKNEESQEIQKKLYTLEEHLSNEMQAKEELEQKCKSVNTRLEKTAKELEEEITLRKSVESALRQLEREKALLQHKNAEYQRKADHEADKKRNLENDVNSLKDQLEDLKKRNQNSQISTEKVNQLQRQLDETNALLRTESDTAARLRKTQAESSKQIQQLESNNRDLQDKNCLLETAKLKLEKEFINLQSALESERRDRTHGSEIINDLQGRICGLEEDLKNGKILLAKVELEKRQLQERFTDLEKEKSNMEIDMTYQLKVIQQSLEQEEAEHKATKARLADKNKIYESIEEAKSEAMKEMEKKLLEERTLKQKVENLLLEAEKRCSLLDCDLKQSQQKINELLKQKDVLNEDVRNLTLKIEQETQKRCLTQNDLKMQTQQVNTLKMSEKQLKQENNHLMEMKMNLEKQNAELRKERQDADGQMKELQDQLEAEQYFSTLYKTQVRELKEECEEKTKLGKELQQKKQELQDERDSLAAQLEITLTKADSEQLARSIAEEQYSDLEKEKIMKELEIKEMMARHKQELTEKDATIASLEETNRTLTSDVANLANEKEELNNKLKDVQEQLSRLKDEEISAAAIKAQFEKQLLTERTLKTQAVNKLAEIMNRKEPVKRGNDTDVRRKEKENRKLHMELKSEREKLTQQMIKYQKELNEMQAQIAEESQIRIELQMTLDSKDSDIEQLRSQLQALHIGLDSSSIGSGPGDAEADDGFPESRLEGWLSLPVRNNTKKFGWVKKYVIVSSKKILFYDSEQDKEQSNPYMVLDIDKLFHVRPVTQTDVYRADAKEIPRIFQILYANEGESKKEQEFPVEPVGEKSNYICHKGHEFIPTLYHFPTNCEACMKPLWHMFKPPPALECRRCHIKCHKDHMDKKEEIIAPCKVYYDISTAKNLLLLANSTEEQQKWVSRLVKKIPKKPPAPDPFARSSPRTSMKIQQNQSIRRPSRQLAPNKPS

| Structure (SMILES) | remaining activity at 1 µM (DAPK1) | remaining activity at 1 µM (EF2K) | remaining activity at 1 µM (MST2) | remaining activity at 1 µM (NUAK1) | remaining activity at 1 µM (PKB) | remaining activity at 1 µM (ROCK 2) | remaining activity at 1 µM (VEG-FR) |
| --- | --- | --- | --- | --- | --- | --- | --- |
| N=C(N)NCCC[C@@H](NC(=O)CCCCCNC(=O)Cn1cnc2c(I)c(I)c(I)c(I)c21)C(=O)N[C@H](CCCNC(=N)N)C(=O)N[C@H](CCCNC(=N)N)C(=O)N[C@H](CCCNC(=N)N)C(=O)N[C@H](CCCNC(=N)N)C(=O)N[C@H](CCCNC(=N)N)C(=O)N[C@H](CCCCN)C(N)=O [ARC-3125, TIBI-CH2-C(=O)-Ahx-(D-Arg)6-D-Lys-NH2] | 18 ± 1% | 103 ± 1% | 73 ± 1% | 7 ± 15% | -1 ± 1% | 5 ± 1% | 95 ± 41% |
| N=C(N)NCCC[C@@H](NC(=O)CNC(=O)[C@@H](CCCNC(=N)N)NC(=O)[C@@H](CCCNC(=N)N)NC(=O)CCCCCCCNCc1nc2c(sc3cc(Br)cnc32)c(=O)[nH]1)C(=O)N[C@H](CCCCN)C(N)=O [Compound 1, BPTP-Aoc-(D-Arg)2-Gly-D-Arg-D-Lys-NH2] | 85 ± 3% | 104 ± 2% | 115 ± 11% | 95 ± 14% | 101 ± 6% | 114 ± 17% | 110 ± 9% |
| N=C(N)NCCC[C@@H](NC(=O)CNC(=O)[C@@H](CCCNC(=N)N)NC(=O)[C@@H](CCCNC(=N)N)NC(=O)CCCCCCCNCc1nc2c(sc3ccc(Br)cc32)c(=O)[nH]1)C(=O)N[C@H](CCCCN)C(N)=O [Compound 2, BBTP-Aoc-(D-Arg)2-Gly-D-Arg-D-Lys-NH2] | 60 ± 11% | 98 ± 7% | 128 ± 35% | 102 ± 14% | 67 ± 7% | 61 ± 5% | 96 ± 3% |
| N=C(N)NCCC[C@@H](NC(=O)CCCCCNCc1nc2c(sc3cc(Br)cnc32)c(=O)[nH]1)C(=O)N[C@H](CCCNC(=N)N)C(=O)N[C@H](CCCNC(=N)N)C(=O)N[C@H](CCCNC(=N)N)C(=O)N[C@H](CCCNC(=N)N)C(=O)N[C@H](CCCNC(=N)N)C(=O)N[C@H](CCCCN)C(N)=O [ARC-3126, BPTP-Ahx-(D-Arg)6-D-Lys-NH2] (X3-[dR][dR][dR][dR][dR][dR][dK]-NH2) | 49 ± 18% | 85 ± 10% | 106 ± 6% | 47 ± 7% | 80 ± 4% | 65 ± 17% | 85% |
| N=C(N)NCCC[C@@H](NC(=O)CNC(=O)[C@@H](CCCNC(=N)N)NC(=O)[C@@H](CCCNC(=N)N)NC(=O)Cn1cc(CNCc2nc3c(sc4ccc(Br)cc43)c(=O)[nH]2)nn1)C(=O)N[C@H](CCCCN)C(N)=O [Compound 3, BBTP-Amt-(D-Arg)2-Gly-D-Arg-D-Lys-NH2] | 88 ± 3% | 102 ± 3% | 84 ± 6% | 74 ± 6% | 72 ± 12% | 62 ± 5% | 90 ± 5% |
